Results taken from paper PMC12678802, “Tudor-based proteomic strategy pan-specifically enriches and identifies protein arginine methylation” (EMBO Reports, 2025).
Like-named read-outs stand apart in the source and are kept apart here.

Columns and labels:
[1] = target: SMN Tudor domain (80-167 aa) with a C-terminal His6-tag (UniProt Q16637); assay: ITC; 2 mM or 5 mM ligand in the syringe injected into 200 uM or 300 uM SMN Tudor in the cell; 1x PBS, 25 °C; one site model with stoichiometry (N) fixed at 1
Sequence of SMN Tudor domain (80-167 aa) with a C-terminal His6-tag (Q16637 80-167): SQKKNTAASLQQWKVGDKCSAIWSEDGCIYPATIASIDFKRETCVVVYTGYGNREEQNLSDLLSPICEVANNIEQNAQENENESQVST

[2] = target: T1, SMN Tudor domain (SMN) (Homo sapiens, UniProt Q16637); assay: isothermal titration calorimetry (ITC), […] model, N fixed at […]; assay type: binding
T1 construct: gene SMN1; SMN Tudor domain (80–167 aa), C-terminal His6-tag
T1 sequence (Q16637 80-167): as above

Molecule	Kd [1] [µM]	dH [1] [kcal/mol]	Kd ([2]; read-out: KD) [µM]	further results
SmD1 heptapeptide AGRGRGR, residues 96–102 of SmD1	> 2000			
CNC(=N)NCCC[C@H](N)C(=O)O [MMA, Methylarginine (L-NMMA)]				Kd [2]: 1800 ± 322 µM
CN(C)C(=N)NCCC[C@H](N)C(=O)O [aDMA, Asymmetric dimethylarginine]			860 ± 34	

Now from value to molecule, other results behind:

Kd [1] [µM]	dH [1] [kcal/mol]	Kd ([2]; read-out: KD) [µM]	Molecule	further results
834	-8.02		SmD1-aDMA heptapeptide AGRme2aGRGR, residues 96–102 of SmD1	
375	-14.5		SmD1-sDMA heptapeptide AGRme2sGRGR, residues 96–102 of SmD1	
		359 ± 45	CN=C(NC)NCCC[C@H](N)C(=O)O [sDMA, Symmetric dimethylarginine]	
